The target in one assay is T1, human LILRB1 (human, UniProt Q8NHL6 24-458, limits assumed).
T1 construct: also called hLILRB1
Put plainly: Octet off-rate ranking.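 Note: antibody dissociation rate constants against cynomolgus LILRB2 plus human LILRB1, LILRB2, LILRA1 and LILRA2, measured on an Octet instrument to rank binding.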 In general terms: In BLI a coated tip is dipped into the sample, and binding shifts an interference pattern.

For assay [1], the target named is T2, human LILRB1 on CHOK1 cells (human, UniProt Q8NHL6 24-650).
T2 construct: whole, on cells; also called CHOK1-hLILRB1; CHOK1-LILRB1
T2 sequence (Q8NHL6 24-650): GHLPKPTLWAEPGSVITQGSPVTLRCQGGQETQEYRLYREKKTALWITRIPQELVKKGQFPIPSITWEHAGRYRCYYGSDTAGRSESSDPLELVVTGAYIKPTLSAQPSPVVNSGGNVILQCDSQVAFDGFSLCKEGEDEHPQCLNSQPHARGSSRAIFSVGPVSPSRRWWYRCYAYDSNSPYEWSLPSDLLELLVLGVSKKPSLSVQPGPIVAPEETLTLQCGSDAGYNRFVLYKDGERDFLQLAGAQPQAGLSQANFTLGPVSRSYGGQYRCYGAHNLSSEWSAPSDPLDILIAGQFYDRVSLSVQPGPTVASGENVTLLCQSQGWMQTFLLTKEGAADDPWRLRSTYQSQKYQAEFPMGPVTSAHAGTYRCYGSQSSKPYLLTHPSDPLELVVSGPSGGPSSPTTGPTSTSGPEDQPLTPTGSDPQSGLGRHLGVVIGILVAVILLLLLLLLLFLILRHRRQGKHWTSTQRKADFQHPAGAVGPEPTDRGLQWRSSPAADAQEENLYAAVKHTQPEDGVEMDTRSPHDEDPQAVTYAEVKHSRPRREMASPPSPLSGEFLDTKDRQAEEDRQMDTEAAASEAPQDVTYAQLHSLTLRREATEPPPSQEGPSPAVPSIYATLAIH
Put plainly: FACS binding, CHOK1-hLILRB1 cells.

Assay [2] addresses T3, human LILRB2 on CHOK1 cells (human, UniProt Q8N423 22-597).
T3 construct: whole, on cells; also called CHOK1-hLILRB2; CHOK1-LILRB2
Put plainly: FACS binding, CHOK1-hLILRB2 cells. Background: Flow cytometry measures light scatter and fluorescence of single cells or particles in a stream.

Assay [3] concerns the target T2, human LILRB1 on CHOK1 cells. Put plainly: cell-based RBA (FACS): blocking of HLA-G binding to CHOK1-hLILRB1 cells.

T3 sequence (Q8N423 22-597): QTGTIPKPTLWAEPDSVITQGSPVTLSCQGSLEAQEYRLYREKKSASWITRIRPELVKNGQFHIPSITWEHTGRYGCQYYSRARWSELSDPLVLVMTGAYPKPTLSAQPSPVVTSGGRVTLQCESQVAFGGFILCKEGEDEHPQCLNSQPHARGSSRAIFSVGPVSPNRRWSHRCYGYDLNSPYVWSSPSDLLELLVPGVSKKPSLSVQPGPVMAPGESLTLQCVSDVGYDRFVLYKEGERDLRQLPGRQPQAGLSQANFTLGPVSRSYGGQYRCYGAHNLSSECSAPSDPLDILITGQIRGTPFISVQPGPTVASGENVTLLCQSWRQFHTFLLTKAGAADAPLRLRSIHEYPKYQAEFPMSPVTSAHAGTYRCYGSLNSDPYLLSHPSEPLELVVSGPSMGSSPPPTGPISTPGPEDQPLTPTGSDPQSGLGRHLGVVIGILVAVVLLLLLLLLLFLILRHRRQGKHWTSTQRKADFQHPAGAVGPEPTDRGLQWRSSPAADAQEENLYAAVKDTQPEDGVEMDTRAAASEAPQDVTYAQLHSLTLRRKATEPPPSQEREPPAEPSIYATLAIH
T1 sequence (Q8NHL6 24-458 limits assumed): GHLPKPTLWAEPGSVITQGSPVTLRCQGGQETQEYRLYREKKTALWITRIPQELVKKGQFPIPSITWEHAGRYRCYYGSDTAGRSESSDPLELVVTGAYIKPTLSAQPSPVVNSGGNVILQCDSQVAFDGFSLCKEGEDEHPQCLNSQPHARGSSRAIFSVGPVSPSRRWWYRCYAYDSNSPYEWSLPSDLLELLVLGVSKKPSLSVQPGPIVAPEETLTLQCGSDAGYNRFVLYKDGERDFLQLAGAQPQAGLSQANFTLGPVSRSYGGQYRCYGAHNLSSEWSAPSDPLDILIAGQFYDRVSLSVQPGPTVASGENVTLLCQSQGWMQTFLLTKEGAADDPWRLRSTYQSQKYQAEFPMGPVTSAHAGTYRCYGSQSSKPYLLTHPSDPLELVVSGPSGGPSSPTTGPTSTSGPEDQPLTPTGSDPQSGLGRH

B1: LK-RB1-14 (antibody, human IgG4 S228P, kappa, V domains shown)
VH: QVTLKESGPGILKPSQTLSLTCSFSGFSLSTSGMGVGWIRQPSGKGLEWLAHIWWDDDKYYNPSLKSQLTISKDTSRNQVFLKITSVDTADTATYYCARTELGRGDSWGQGTSVTVSS
VL: DILLTQSPAILSVSPGERVSFSCRASQSIGTSIHWYQQRTNGSPRLLIKYASESISGIPSRFSGSGSGTDFTLSINSVESEDIADYYCQQSYSWPYTFGGGTKLEIKR
Regarding B1, in the assay with human LILRB1, the koff (in general, the rate constant with which the complex falls apart) worked out at 0.00131 s⁻¹.

B2: LK-RB1-15 (antibody, human IgG4 S228P, kappa, V domains shown)
VH: QVTLKESGPGIVKPSQTLSLTCSFSGFSLSISGTGIGWIRQPSGKGLEWLAHIWWDDDKYYNPSLKSQVTISKDTSTKQVFLNITSVDTADTATYYCTRTELGRGDFWGQGTSVTVSS
VL: DILLTQSPAILSVSPGDRVSFSCRASQSIGTNIHWYQRRTNGSPRLLIKYGSESISGIPSRFSGSGTGTDFTLTINSVESEDIADYYCQQSYSWPYTFGGGTKLEIKR
In the assay with human LILRB1, B2 returned a koff of 0.000103 s⁻¹.

B3: LK-RB1-6 (antibody, human IgG4 S228P, kappa, V domains shown)
VH: QIQLVQSGPELKKPGETVKISCKASGYTFTTYGMSWVKQAPGKDLKWMGWINTFSGVPACADDFQGRFDFSAEPSDSTAHLQINNLKNEDTATYFCARRSYYGSRGWYFDVWGTGTTVTVSS
VL: DIVMTQSHKFMSTSVGDRVSITCTASEDVNTAVAWYQQKPGQSPKLLIYWASTRHTGVPDRFTGSGSGTDYTLTISSVQTEDLALYYCQQHYNTPYTFGGGTKLEIKR
B3 had a koff with human LILRB1 of 0.00059 s⁻¹.

B4: LK-RB1-7 (antibody, human IgG4 S228P, kappa, V domains shown)
VH: QIQLVQSGPELKKPGETVKISCKASGYTFTTYGMSWVKQAPGKDLKWMGWINTFSGVPACADDFQGRFDFSAEPSDSTAHLQINNLKNEDTATYFCARRSYYGSRGWYFDVWGTGTTVTVSS
VL: DVQMIQSPSSLSASLGDIVTMTCQASQDTTINLNWFQQKPGKVPKLLIYGASNLEDGVPSRFSGSSFGTDFTLTISSLEDEDMATYFCLQHTYLPRTFGGGTKLEIRR
As to B4, the koff in the assay with human LILRB1 was determined as 0.00059 s⁻¹.

B5: LK-RB1-24 (antibody, human IgG4 S228P, kappa, V domains shown)
VH: QVQLQQPGAELVNPGTSVNLSCKASGYTFTGYWMHWVKQRPGQGLEWIGMIHPNNGGTIYNERFNGKATLTVDRSSTTAYIQLSSLTSEDSAVYYCAYWDLDYWGQGTTLTVSS
VL: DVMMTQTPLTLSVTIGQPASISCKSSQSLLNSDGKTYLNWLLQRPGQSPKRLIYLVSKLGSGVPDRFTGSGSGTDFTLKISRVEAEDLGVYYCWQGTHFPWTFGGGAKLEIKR
In the assay with human LILRB1, B5 came in with a koff of 0.000987 s⁻¹.

B6: LK-RB1-20 (antibody, human IgG4 S228P, kappa)
heavy: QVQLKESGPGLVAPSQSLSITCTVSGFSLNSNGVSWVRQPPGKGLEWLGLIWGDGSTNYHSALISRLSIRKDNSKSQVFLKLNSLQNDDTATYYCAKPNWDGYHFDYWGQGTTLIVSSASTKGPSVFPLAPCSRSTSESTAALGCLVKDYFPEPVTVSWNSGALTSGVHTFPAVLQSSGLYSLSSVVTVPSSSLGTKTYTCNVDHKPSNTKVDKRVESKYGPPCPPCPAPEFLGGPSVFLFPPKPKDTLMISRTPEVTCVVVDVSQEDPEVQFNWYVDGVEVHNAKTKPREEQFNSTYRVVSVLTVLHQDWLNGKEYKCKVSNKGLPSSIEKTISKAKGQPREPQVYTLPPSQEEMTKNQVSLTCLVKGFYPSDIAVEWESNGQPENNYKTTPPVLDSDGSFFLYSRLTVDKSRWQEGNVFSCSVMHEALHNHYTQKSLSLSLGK
light: DIQMNQSPSSLSASLGDTITITCHASQNIDFWLSWYQQKPGNIPKLLIYKASNLHTGVPSRFSGSGSGTGFTLTISSLQPEDIATYYCQQGQSYPLTFGAGTKLELKRTVAAPSVFIFPPSDEQLKSGTASVVCLLNNFYPREAKVQWKVDNALQSGNSQESVTEQDSKDSTYSLSSTLTLSKADYEKHKVYACEVTHQGLSSPVTKSFNRGEC
For B6, the koff with human LILRB1 stood at 0.000141 s⁻¹.

B7: LK-RB1-53 (antibody, human IgG4 S228P, kappa)
heavy: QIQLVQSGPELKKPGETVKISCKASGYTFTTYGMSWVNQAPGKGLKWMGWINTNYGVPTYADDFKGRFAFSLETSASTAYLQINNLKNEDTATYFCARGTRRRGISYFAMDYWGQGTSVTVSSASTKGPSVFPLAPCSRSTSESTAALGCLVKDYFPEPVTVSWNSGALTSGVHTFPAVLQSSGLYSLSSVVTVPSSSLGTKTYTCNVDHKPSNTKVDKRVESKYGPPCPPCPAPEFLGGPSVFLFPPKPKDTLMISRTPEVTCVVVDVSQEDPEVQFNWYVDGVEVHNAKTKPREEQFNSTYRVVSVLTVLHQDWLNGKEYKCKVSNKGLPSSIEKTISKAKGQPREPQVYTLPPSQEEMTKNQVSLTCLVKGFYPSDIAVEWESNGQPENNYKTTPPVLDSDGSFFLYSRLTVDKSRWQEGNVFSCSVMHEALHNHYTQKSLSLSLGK
light: DIVMTQSQKFMSTTVGDRVSITCKASQNVGTAVAWYQQKPGQSPKLLIYSASNRYTGVPDRFTGSDSGTDFTLTINNIQSEDLADYFCQQYSSYPLTFATGTKLELKRTVAAPSVFIFPPSDEQLKSGTASVVCLLNNFYPREAKVQWKVDNALQSGNSQESVTEQDSKDSTYSLSSTLTLSKADYEKHKVYACEVTHQGLSSPVTKSFNRGEC
Take B7: the EC50 (as a rule, the concentration needed to bring the measured effect to its halfway point) in assay [1] came out at 0.71 nM; in assay [3], 2.01 nM. The binding result in assay [2] is reported as “no binding”. Further, in assay [3], the “Top Inhibition (%)” value stood at 75.7%.

B8: LK-RB1-3 (antibody, human IgG4 S228P, kappa, V domains shown)
VH: QVQLQQPGAELVKPGTSVNLSCKASGYTFTSYWIHWVKQRPGRGLEWIGRINPYSSGTRYNEKFKNKATLTVDKPSSTAYMQLTSLTSEDSAVYYCARFDGAPDYFDFWGQGTTLTVSS
VL: DIVMTQSQKFMPTSVGDRVNVTCKASQNVGINVAWYQQKLGQSPKALIYSASYRYSGVPDRFTGSGSGTDFTLTINSVQSEDLADYFCQQYNNYPFTFGSGTKLEIKR
Take B8: the koff with human LILRB1 turned out to be 5.24e-05 s⁻¹.

B9: LK-RB1-18 (antibody, human IgG4 S228P, kappa, V domains shown)
VH: QVQLKESGPGLVAPSQSLSITCTVSGFSLTNSGVTWIRQPPGKGLEWLGVIWGDGSTNYHSALISRLSISKDNSKSQVFLKLNSLQTDDTATYYCAKPHWDYYNMDYWGQGTSVTVSS
VL: DIQMTQTPSSLSASLGDRVTISCRASQDISNYLNWYQQKPDGTVKLLIYFTSRLHSGVPSRFSGSGSGTDYSLTISNLEQEDFATYFCQQGITLPLTFGAGTKLELKR
In the assay with human LILRB1, B9 showed a koff of 8.15e-05 s⁻¹.

B10: LK-RB1-19 (antibody, human IgG4 S228P, kappa, V domains shown)
VH: QVQLKESGPGLVAPSQNLSITCTVSGFSLTSYGVSWVRQPPGKGLEWLGIIWGDGNTDYHSALISRLSIRKDNSKSQVFLKLNSLKSDDTATYYCAKPHWEYYTMDYWGQGTSVTVSS
VL: DIQMTQTTSSLSASLGDRVTISCRASQDISNFLNWYQQKPDGTVKLLIYSTSRLHSGVPSRFSGSGSGTDYSLTIANLEQEDVATYFCQQGNTLPLTFGAGTKLELKR
On to B10, for which the koff with human LILRB1 was 4.78e-05 s⁻¹.

B11: LK-RB1-22 (antibody, human IgG4 S228P, kappa, V domains shown)
VH: QVQLKESGPGLVAPSQSLSITCTVSGFSLTSYGVSWVRQPPGKGLEWLGIIWGDGNTNYHSALTSRLSISKDNSKSQVFLKLNSLRTDDTATYYCAKPHWDHYSMDYWGQGTSVTVSS
VL: DIQMTQTTSSLSASLGDRVTISCRASQDISNFLNWYQQKPDGTVKLLIYYTSRLHSGAPSRFSGSGSGTDYSLTISNLDQEDIATYFCQQGNTLPLTFGAGTKLELKR
With B11, the koff with human LILRB1 came out at 0.000416 s⁻¹.

B12: LK-RB1-2 (antibody, human IgG4 S228P, kappa, V domains shown)
VH: QIQLVQSGPELKKPGETVKISCKASGYTFTTYGVSWVKQAPGKGLKWMGWINTYSGVSTYSDDFKGRFAFSLETSASTAYLQIINLKNEDAATYFCSRRRRTYDGYLSFDYWGQGTTLTVSS
VL: DIQMTQSPGSLSASVGETVTITCGASENIYGALNWFQRKPGKSPQLLIYGATNLADGMSSRFSGSGSGRQYSLQISSLRPDDVATYYCQNVLTTPWTFGGGTKVEIKR
B12 had a koff in the assay with human LILRB1 of 0.000118 s⁻¹.

B13: LK-RB1-52 (antibody, human IgG4 S228P, kappa, V domains shown)
VH: EVKLVESGGGLVQPGGSLKLSCAASGFIFSDYYMYWVRQTPEKRLEWVAYISNGGDITYYPDTVKGRFTISRDIARNTLFLQMGRLKSEDTAMYYCASATTEVGAMDHWGQGTSVTVSS
VL: DIVMTQSQKFMSTTVGDRVSITCKASQNVGTAVAWYQQKPGQSPKLLIYAASNRYTGVPDRFTGSGSGTDFTLTISNMQSEDLADYFCQQYRSYRTFGGGTNLEIKR
On to B13, for which, in assay [1], the EC50 came to 1.8 nM. The binding result in assay [2] is reported as “no binding”. Moreover, in assay [3], the EC50 worked out at 2.25 nM and the “Top Inhibition (%)” value is 89.7%.

B14: LK-RB1-57 (antibody, human IgG4 S228P, kappa, V domains shown)
VH: EVKLVESGGGLVQPGGSLKLSCAASGFTFSDYYMYWVRQTPEKRLEWVAYISNGGDITFYPDTVKGRFTISRDNARSTLYLQTSRLKSEDTAIYYCASATTEVGAMDHWGQGTSVTVSS
VL: DIVMTQSQKFMSTTVGDRVSITCKASQNVGTAVAWYQQKPGKSPKLLIYAASNRYTGVPDRFTGSGSGTDFTLTISNVQSEDLADYFCQQYSSYRTFGGGTSLEIKR
For the molecule B14, the EC50 in assay [1] was 1.78 nM; in assay [3] it was 1.67 nM. Also, the binding result in assay [2] is reported as “no binding”. For the same molecule, the “Top Inhibition (%)” value in assay [3] stood at 90%.

B15: LK-RB1-23 (antibody, human IgG4 S228P, kappa, V domains shown)
VH: QVQLQQTGAELVRPGSSVKLSCKASGYTFTNYWMDWVKQRPGQGLEWIGNIHPFGNETHYNQKFKDKATLTVDKSSSTAYMQLSSLTSEDSAVYYCARGLLLYFDVWGTGTTVTVSS
VL: DIQMTQSPASQSVSVGETVTITCRASENIYSNLAWYQQKQGKSPQLLVYGATNLADGVSLRFSGSGSGTQYSLKINSLQSEDFGSYYCQHFWGIPWTFGGGTKLEIKR
In turn, B15 returned a koff with human LILRB1 of 0.000477 s⁻¹.

B16: LK-RB1-4 (antibody, human IgG4 S228P, kappa, V domains shown)
VH: QVQLQQPGAELVKPGASVKLPCKTSGYTFTSYWMHWVKQRPGRGLEWIGRIDPHYSGTKYNEKFKNKATMTVDTPSSTAYMQLSSLTSEDSAVYYCARFDGDPYYFDYWGPGTTLTVSS
VL: DIVMTQSQKFMSTSVGDRVSVTCKASQNVGTNVAWYKQKAGQSPKAVIYSASYRYSGVPDRFTGSGSGTDFTLSISNVQSEDLAEYFCQQYNNNPFTFGSGTKLEIKR
Regarding B16, the koff with human LILRB1 amounted to 2.79e-05 s⁻¹.

B17: LK-RB1-49 (antibody, human IgG4 S228P, kappa, V domains shown)
VH: QIQLVQSGPELKKPGETVKISCKASGYTFTTYGMSWVKQAPGKGLKWMGWINTYSGVPTYADDFKGRFAFSLETSGSTAYLQISNLKNEDTATYFCSRLFRSWDSYAMDYWGQGTSVTVSS
VL: DIVMTQSQKFMSATVGDRVSITCKASQNVGTAVAWYQQKPGQSPKLLIYSPSNRYTGVPDRFTGSGSGTHFTLTINNMQSEDLADYFCQQYSTYPLTFGAGTKLELNR
In the case of B17, the EC50 in assay [1] was found to be 2.05 nM. Besides, in assay [2], the binding result is “no binding”. In assay [3], the response was half-maximal at 2.32 nM (EC50) and the “Top Inhibition (%)” value amounted to 91.4%.

B18: LK-RB1-21 (antibody, human IgG4 S228P, kappa, V domains shown)
VH: QVQLQQPGAELVKPGASVKMSCKASGYIFTDYWTTWVKQRPGQGLEWIGDIYPVSGSTNYNEKFKNKATLTVDTSSSTAYMQLSSLTSEDSAVYYCARALGRRYYFDYWGQGTTLTVSS
VL: DIVMTQSHKFMSTSIGDRVSITCKASQDVSTAVAWCQQKPGQSPKSLIYSASYRYTGIPDRFTGSGSGTDFTFTISSVQAEDLAVYYCQQHYTNPVTFGTGTKLELKR
Molecule B18 yielded a koff in the assay with human LILRB1 of 4.02e-05 s⁻¹.

B19: LK-RB1-17 (antibody, human IgG4 S228P, kappa, V domains shown)
VH: QVQLQQPGAELVKPGASVKLSCEASGYTFTNYWIHWVKQRPGRGLEWIGRIAPNSGGTKYNEKFKTRATLTVDKASTTAYMQLSSLTSEDSAVYYCARLDGSPYYFDYWGQGTTLTVSS
VL: DIVMTQSQKFMSTSIGDRVSVTCKASQNVDTNVAWYQQKPGQSPKALIYSASYRYSGIPDRFTGSGSGTDFTLTISNVQSEDLAEYFCQQYNSYPYTFGGGTKLEIKR
B19: in the assay with human LILRB1, the koff was determined as 0.000312 s⁻¹.

B20: LK-RB1-8 (antibody, human IgG4 S228P, kappa, V domains shown)
VH: QVQLQQSGAELVRPGTSVKVSCKASGYAFSNYLIEWVKQRPGQGLEWIGVINPGSDGSTYNEKFKGKATLTADKSSNTAYMQLSSLTSEDSAVYFCARGDYGRSYGMDYWGQGTSVTVSS
VL: DIVMTQSQKFMSTTVGDRVSITCKASQNVGTAVVWYQQKPGQSPKLLIYSASNRYTGVPDRFTGSGSGTDFTLTISNMQSEDLADYFCQQYSSYMYTFGGGTKLEIKR
B20 came in with a koff with human LILRB1 of 0.000218 s⁻¹.
